In patent US20140363428A1 (Chugai, published 2014) one finds Kd data, which are given here for 48 molecules.

Residue numbers refer to the chain shown, from its start.

The labels stand for the following.
B1: IgG1-F1138 (antibody)
heavy: QVQLQESGPGLVKPSETLSLTCAVSGHSISHDHAWSWVRQPPGEGLEWIGFISYSGITNYNPSLQGRVTISRDNSKNTLYLQMNSLRAEDTAVYYCARSLARTTAMDYWGEGTLVTVSSASTKGPSVFPLAPSSKSTSGGTAALGCLVKDYFPEPVTVSWNSGALTSGVHTFPAVLQSSGLYSLSSVVTVPSSSLGTQTYICNVNHKPSNTKVDKKVEPKSCDKTHTCPPCPAPELRGGPKVFLFPPKPKDTLYISRTPEVTCVVVDVSHEDPEVKFNWYVDGVEVHNAKTKPREEQYNSTYRVVSVLTVLHQDWLNGKEYKCKVSNKALPAPIEKTISKAKGQPREPQVYTLPPSRDELTKNQVSLTCLVKGFYPSDIAVEWESNGQPENNYKTTPPVLDSDGSFFLYSKLTVDKSRWQQGNVFSCSVMHEALHYHVTRKELSLSP
light: not shown
B2: F1586 (antibody)
chain 1: B1 heavy with S256T, R257L, T258E, E260D, H435D
chain 2: DIQMTQSPSSLSASVGDSVTITCQASTDISSHLNWYQQKPGKAPELLIYYGSHLLSGVPSRFSGSGSGTDFTFTISSLEAEDAATYYCGQGNRLPYTFGQGTKVEIERTVAAPSVFIFPPSDEQLKSGTASVVCLLNNFYPREAKVQWKVDNALQSGNSQESVTEQDSKDSTYSLSSTLTLSKADYEKHKVYACEVTHQGLSSPVTKSFNRGEC
B3: F1613 (antibody)
chain 1: B1 heavy with S256T, R257L, T258E, E260I, H435D, R440K, E442D
chain 2: B2 chain 2
B4: F1592 (antibody)
chain 1: B1 heavy with S256T, R257L, T258E, E260I, H435D
chain 2: B2 chain 2
B5: F1614 (antibody)
chain 1: B1 heavy with S256T, R257L, T258E, E260D, H435D, E442D
chain 2: B2 chain 2
B6: F1605 (antibody)
chain 1: B1 heavy with S256T, R257L, T258E, H435D, E442D
chain 2: B2 chain 2
B7: F1610 (antibody)
chain 1: B1 heavy with S256T, R257L, T258E, E260D, H435D, R440K
chain 2: B2 chain 2
B8: F1612 (antibody)
chain 1: B1 heavy with S256T, R257L, T258E, E260D, H435D, R440K, E442D
chain 2: B2 chain 2
B9: F1599 (antibody)
chain 1: B1 heavy with S256T, T258E, H435D, R440K, E442D
chain 2: B2 chain 2
B10: F1611 (antibody)
chain 1: B1 heavy with S256T, R257L, T258E, E260I, H435D, R440K
chain 2: B2 chain 2
B11: IgG1-F1350 (antibody)
heavy: B1 heavy with V438F, R440K
light: not shown
B12: IgG1-F1331 (antibody)
heavy: B1 heavy with G238R, S256T, T258E
light: not shown
B13: F1566 (antibody)
heavy: B1 heavy with S256T, T258E, N288E, H435D, R440K
light: B2 chain 2
B14: IgG1-F1329 (antibody)
heavy: B1 heavy with G238R, S256T
light: not shown
B15: IgG1-F1306 (antibody)
heavy: B1 heavy with H435D, R440K
light: not shown
B16: IgG1-F1261 (antibody)
heavy: B1 heavy with E442D
light: not shown
B17: IgG1-F1305 (antibody)
heavy: B1 heavy with H435D, E442D
light: not shown
B18: F1601 (antibody)
heavy: B1 heavy with S256T, T258E, N288E, H435D, R440K, E442D
light: B2 chain 2
B19: IgG1-F1351 (antibody)
heavy: B1 heavy with V438F
light: not shown
B20: IgG1-F1263 (antibody)
heavy: B1 heavy with R440K, E442D
light: not shown
B21: IgG1-F1262 (antibody)
heavy: B1 heavy with R440K
light: not shown
B22: IgG1-F1269 (antibody)
heavy: B1 heavy with H435D, R440K, E442D
light: not shown
B23: IgG1-F1349 (antibody)
heavy: B1 heavy with V438T
light: not shown
B24: IgG1-F1344 (antibody)
heavy: B1 heavy with V438T, R440K
light: not shown
B25: F1655 (antibody)
heavy: B1 heavy with S256T, T258E, H435S, R440K, E442D
light: B2 chain 2
B26: F1603 (antibody)
heavy: B1 heavy with S256T, R257L, T258E, H435D, R440K
light: B2 chain 2
B27: F1654 (antibody)
heavy: B1 heavy with S256T, T258E, H435S, E442D
light: B2 chain 2
B28: F1653 (antibody)
heavy: B1 heavy with S256T, T258E, H435S, R440K
light: B2 chain 2
B29: F1604 (antibody)
heavy: B1 heavy with S256T, R257L, T258E, H435D, R440K, E442D
light: B2 chain 2
B30: IgG1-F1141 (antibody)
heavy: B1 heavy with R237L, K241S, V424S, S426R
light: not shown
notes: VH3-IgG1 with Fc substitutions (EU numbering) + L(WT)-CK
B31: IgG1-F1146 (antibody)
heavy: B1 heavy with T252V, T309Q, Q313A
light: not shown
notes: as for B30
B32: IgG1-F1136 (antibody)
heavy: B1 heavy with V424E, S426R, R440Q, E442S
light: not shown
notes: as for B30
B33: IgG1-F1142 (antibody)
heavy: B1 heavy with V424E, S426R
light: not shown
notes: as for B30
B34: IgG1-F1158 (antibody)
heavy: B1 heavy with V438Y
light: not shown
notes: as for B30
B35: IgG1-F1139 (antibody)
heavy: B1 heavy with S426N, R440Q, E442S
light: not shown
notes: as for B30
B36: IgG1-F1138 (antibody)
heavy: B1 heavy
light: not shown
notes: as for B30
B37: IgG1-F1145 (antibody)
heavy: B1 heavy with R237L, K241S, T252V, T309Q, Q313A
light: not shown
notes: as for B30
B38: IgG1-F1143 (antibody)
heavy: B1 heavy with V424S, S426R
light: not shown
notes: as for B30
B39: IgG1-F1153 (antibody)
heavy: B1 heavy with T252V, T309Q, Q313A, S426N, R440Q, E442S
light: not shown
notes: as for B30
B40: IgG1-F1157 (antibody)
heavy: B1 heavy with R237L, K241S, V438Y
light: not shown
notes: as for B30
B41: IgG1-F1144 (antibody)
heavy: B1 heavy with T252V, T309Q, V310P, Q313A
light: not shown
notes: as for B30
B42: IgG1-F1147 (antibody)
heavy: B1 heavy with R237L, K241S, T309Q, Q313A, V438Y
light: not shown
notes: as for B30
B43: IgG1-F1154 (antibody)
heavy: B1 heavy with T252V, T309Q, V310P, Q313A, S426N, R440Q, E442S
light: not shown
notes: as for B30
B44: IgG1-F1151 (antibody)
heavy: B1 heavy with S426N, V438Y, R440Q, E442S
light: not shown
notes: as for B30
B45: IgG1-F1152 (antibody)
heavy: B1 heavy with T309Q, Q313A, S426N, V438Y, R440Q, E442S
light: not shown
notes: as for B30
B46: IgG1-F1137 (antibody)
heavy: B1 heavy with V424S, S426R, R440Q, E442S
light: not shown
notes: as for B30
B47: IgG1-F1148 (antibody)
heavy: B1 heavy with T309Q, Q313A, V438Y
light: not shown
notes: as for B30
B48: IgG1-F1140 (antibody)
heavy: B1 heavy with R237L, K241S, V424E, S426R
light: not shown
notes: as for B30

T2 sequence (P55899 24-297 limits assumed, chain 1 of 2): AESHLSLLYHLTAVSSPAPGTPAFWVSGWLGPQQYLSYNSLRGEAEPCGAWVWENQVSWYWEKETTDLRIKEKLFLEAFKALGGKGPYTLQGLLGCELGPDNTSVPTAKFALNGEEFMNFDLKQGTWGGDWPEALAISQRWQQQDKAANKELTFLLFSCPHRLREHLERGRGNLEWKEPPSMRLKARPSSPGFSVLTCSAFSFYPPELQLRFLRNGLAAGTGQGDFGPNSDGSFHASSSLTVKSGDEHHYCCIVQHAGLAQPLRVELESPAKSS
T2 sequence (P61769 21-119 limits assumed, chain 2 of 2): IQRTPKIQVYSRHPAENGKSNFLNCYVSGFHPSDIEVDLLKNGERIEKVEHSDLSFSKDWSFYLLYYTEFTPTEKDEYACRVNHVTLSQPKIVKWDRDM

One assay deals with T1, soluble human FcRn (human, UniProt P55899 24-297; P61769 21-119).
T1 construct: Heterodimer of alpha chain and beta2-microglobulin; also called hFcRn
T1 sequence (P55899 24-297 limits assumed, chain 1 of 2): as the sequence (P55899 24-297 limits assumed, chain 1 of 2) above
T1 sequence (P61769 21-119 limits assumed, chain 2 of 2): as the sequence (P61769 21-119 limits assumed, chain 2 of 2) above
As to the kind of experiment: SPR (Biacore), pH 7.0.
The molecule B1 gave a dissociation constant (Kd) of 170 nM. In turn, B2 yielded a Kd of 55 nM. On the same count and under the same terms, under B3 stands 52 nM. The same measure, in the same setting: under B4 stands 55 nM. B5 displayed a Kd of 51 nM. The Kd values of the last two molecules are within 1.5-fold of each other.

Consider B6, for which binding was put at a Kd of 61 nM. The Kd values of the last two molecules are within 1.5-fold of each other. On the same count and under the same terms, under B7 stands 48 nM; under B8, 49 nM; under B9, 74 nM. Same read-out and setting: under B10 stands 52 nM; under B11, 120 nM. Still for that read-out and setting: for B12 the value was 77 nM. B13 yielded a Kd of 40 nM. Still for that read-out and setting: for B14 the value was 130 nM. On the same count and under the same terms, for B15 the value was 190 nM; for B16, 140 nM; for B17, 200 nM. On the same count and under the same terms, for B18 the value was 35 nM; for B19, 160 nM; for B20, 120 nM. B21 came in with a dissociation constant (Kd) of 130 nM. The same measure, in the same setting: for B22 the value was 170 nM.

B23 registered a Kd of 340 nM. On the same count and under the same terms, for B24 the value was 400 nM; for B25, 44 nM; for B26, 59 nM. On the same count and under the same terms, for B27 the value was 45 nM. On the same count and under the same terms, under B28 stands 45 nM; under B29, 60 nM.

A further assay addresses T2, soluble human FcRn (heterodimer of FcRn alpha chain and beta2-microglobulin) (human, UniProt P55899 24-297; P61769 21-119).
T2 construct: Expressed in HEK293H and purified on IgG Sepharose; also called hFcRn
As to the kind of experiment: SPR Biacore T100, antibody captured via protein L, hFcRn analyte, pH 7.0, 25 C.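 Note: KD derived from kinetic ka and kd fits of sensorgrams, CM4 sensor chip, sodium phosphate NaCl Tween20 running buffer, buffer-only injection used as reference.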
Procedure: An appropriate amount of protein L (ACTIGEN) was immobilized onto Sensor chip CM4 (GE Healthcare) by the amino coupling method, and the chip was allowed to capture an antibody of interest. Then, diluted FcRn solutions and running buffer (as a reference solution) were injected to allow human FcRn to interact with the antibody captured on the sensor chip. The running buffer used comprised 50 mmol/l sodium phosphate, 150 mmol/l NaCl, and 0.05% (w/v) Tween20 (pH 7.0). FcRn was diluted using each buffer. The chip was regenerated using 10 mmol/l glycine-HCl (pH 1.5). Assays were carried out exclusively at 25 degrees C. The association rate constant ka (1/Ms) and dissociation rate constant kd (1/s), both of which are kinetic parameters, were calculated based on the sensorgrams obtained in the assays, and KD (M) of each antibody for human FcRn was determined from these values. Each parameter was calculated using Biacore T100 Evaluation Software (GE Healthcare).
As for B30, binding was put at a Kd of 180 nM. This lies in the sub-micromolar range. Same read-out and setting: for B31 the value was 62 nM; for B32, 160 nM; for B33, 190 nM. Still for that read-out and setting: for B34 the value was 240 nM; for B35, 150 nM. The molecule B36 registered a Kd of 170 nM. The same measure, in the same setting: for B37 the value was 52 nM; for B38, 200 nM; for B39, 48 nM.

Regarding B40, binding was characterised by a dissociation constant (Kd) of 210 nM. On the same count and under the same terms, for B41 the value was 14 nM. The same measure, in the same setting: for B42 the value was 72 nM. On the same count and under the same terms, for B43 the value was 13 nM. In turn, B44 returned a Kd of 250 nM. Molecule B45 returned a dissociation constant Kd of 74 nM. Still for that read-out and setting: under B46 stands 160 nM; under B47, 76 nM; under B48, 160 nM.
